The supplement of paper PMC9112550, “Optimization of the antimicrobial peptide Bac7 by deep mutational scanning” (BMC Biology, 2022)

tested on: Escherichia coli TOP10; assay: shrunken log2 fold change of peptide-encoding DNA abundance (4.5 h post-induction vs induction); higher = less antimicrobial activity (less host growth inhibition); conditions: time post-induction: 4.5 h; library: site-saturation at positions 5, 18, 19, 20
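Also: peptides expressed intracellularly from a pBAD plasmid library in pooled LB shake-flask culture, induced with 0.3% L-arabinose, DNA abundance read by NGS, three biological replicates, DESeq2 with apeglm shrinkage.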

| Sequence | shrunken log2 fold change |
| --- | --- |
| RRIRPRPPRLPRPRPRPMISPRP | -0.098 |
| RRIRCRPPRLPRPRPRPCLCPRP | -0.185 |
| RRIRGRPPRLPRPRPRPVHQPRP | 0.228 |
| RRIRKRPPRLPRPRPRPAQPPRP | 0.764 |
| RRIRFRPPRLPRPRPRPAIQPRP | -0.102 |
| RRIRSRPPRLPRPRPRPNHPPRP | -0.0712 |
| RRIRKRPPRLPRPRPRPTKRPRP | 0.697 |
| RRIRDRPPRLPRPRPRPKCDPRP | 0.0437 |
| RRIRHRPPRLPRPRPRPNQPPRP | 0.00401 |
| RRIRQRPPRLPRPRPRPELGPRP | 0.0387 |
| RRIRYRPPRLPRPRPRPDHFPRP | 0.00911 |
| RRIRSRPPRLPRPRPRPSYPPRP | -0.736 |
| RRIRHRPPRLPRPRPRPSARPRP | -0.223 |
| RRIRSRPPRLPRPRPRPPEFPRP | -0.119 |
| RRIRNRPPRLPRPRPRPVSVPRP | -0.143 |
| RRIRFRPPRLPRPRPRPGRMPRP | 0.0574 |
| RRIRFRPPRLPRPRPRPLVMPRP | -0.335 |
| RRIRGRPPRLPRPRPRPTWDPRP | 1.01 |
| RRIRTRPPRLPRPRPRPTACPRP | 0.277 |
| RRIRMRPPRLPRPRPRPIQHPRP | -0.124 |
| RRIRMRPPRLPRPRPRPWFKPRP | -0.665 |
| RRIRARPPRLPRPRPRPHMIPRP | 0.028 |

| Sequence | shrunken log2 fold change |
| --- | --- |
| RRIRFRPPRLPRPRPRPSFWPRP | -0.0521 |
| RRIRERPPRLPRPRPRPMGYPRP | -0.0965 |
| RRIRFRPPRLPRPRPRPRWFPRP | -0.111 |
| RRIRFRPPRLPRPRPRPVCWPRP | 0.399 |
| RRIRTRPPRLPRPRPRPLNLPRP | -0.548 |
| RRIRHRPPRLPRPRPRPNPLPRP | -0.0904 |
| RRIRERPPRLPRPRPRPKAGPRP | 0.174 |
| RRIRSRPPRLPRPRPRPTTPPRP | 0.502 |
| RRIRNRPPRLPRPRPRPQDPPRP | -0.296 |
| RRIRERPPRLPRPRPRPLWIPRP | -0.558 |
| RRIRARPPRLPRPRPRPMDMPRP | -0.128 |
| RRIRKRPPRLPRPRPRPWIKPRP | -0.00314 |
| RRIRPRPPRLPRPRPRPLVHPRP | -0.00919 |
| RRIRDRPPRLPRPRPRPPEQPRP | 0.261 |
| RRIRPRPPRLPRPRPRPRILPRP | 0.0605 |
| RRIRERPPRLPRPRPRPRTFPRP | -0.0471 |
| RRIRGRPPRLPRPRPRPTWPPRP | 0.52 |
| RRIRARPPRLPRPRPRPQCNPRP | -0.104 |
| RRIRWRPPRLPRPRPRPAVPPRP | 0.506 |
| RRIRVRPPRLPRPRPRPLEQPRP | -0.0372 |
| RRIRNRPPRLPRPRPRPKESPRP | 0.149 |
| RRIRLRPPRLPRPRPRPRAGPRP | 0.557 |

| Sequence | shrunken log2 fold change |
| --- | --- |
| RRIRFRPPRLPRPRPRPHPVPRP | -0.141 |
| RRIRSRPPRLPRPRPRPAWLPRP | 0.534 |
| RRIRGRPPRLPRPRPRPVGRPRP | 0.842 |
| RRIRSRPPRLPRPRPRPLNLPRP | -0.539 |
| RRIRVRPPRLPRPRPRPQCGPRP | -0.0769 |
| RRIRFRPPRLPRPRPRPCIMPRP | -0.953 |
| RRIRTRPPRLPRPRPRPVTCPRP | -0.0382 |
| RRIRQRPPRLPRPRPRPWPWPRP | 0.0839 |
| RRIRRRPPRLPRPRPRPIGAPRP | 0.435 |
| RRIRRRPPRLPRPRPRPHPLPRP | 0.211 |
| RRIRRRPPRLPRPRPRPKRNPRP | 0.525 |
| RRIRHRPPRLPRPRPRPTYGPRP | -0.106 |
| RRIRTRPPRLPRPRPRPVNVPRP | -0.172 |
| RRIRYRPPRLPRPRPRPAGKPRP | -0.237 |
| RRIRCRPPRLPRPRPRPGENPRP | 0.0862 |
| RRIRMRPPRLPRPRPRPCIRPRP | -0.122 |
| RRIRARPPRLPRPRPRPGPLPRP | 0.429 |
| RRIRFRPPRLPRPRPRPQYMPRP | -1.77 |
| RRIRLRPPRLPRPRPRPKKYPRP | -0.143 |
| RRIRFRPPRLPRPRPRPLPVPRP | 0.142 |
| RRIRFRPPRLPRPRPRPGKSPRP | 0.0865 |
| RRIRERPPRLPRPRPRPSMYPRP | -0.516 |

| Sequence | shrunken log2 fold change |
| --- | --- |
| RRIRNRPPRLPRPRPRPCKIPRP | -0.00963 |
| RRIRNRPPRLPRPRPRPAQGPRP | 0.279 |
| RRIRQRPPRLPRPRPRPDGNPRP | -0.26 |
| RRIRNRPPRLPRPRPRPIVDPRP | -0.139 |
| RRIRERPPRLPRPRPRPDSCPRP | -0.149 |
| RRIRERPPRLPRPRPRPNEDPRP | -0.151 |
| RRIRVRPPRLPRPRPRPRIKPRP | -0.125 |
| RRIRIRPPRLPRPRPRPDLKPRP | -0.194 |
| RRIRGRPPRLPRPRPRPNTWPRP | 0.237 |
| RRIRSRPPRLPRPRPRPCFWPRP | 0.294 |
| RRIRHRPPRLPRPRPRPSYQPRP | -1.14 |
| RRIRQRPPRLPRPRPRPFESPRP | -0.00719 |
| RRIRARPPRLPRPRPRPYWRPRP | -0.096 |
| RRIRGRPPRLPRPRPRPFITPRP | 0.0604 |
| RRIRARPPRLPRPRPRPNAGPRP | 0.315 |
| RRIRARPPRLPRPRPRPSPTPRP | 0.328 |
| RRIRRRPPRLPRPRPRPMQDPRP | 0.452 |
| RRIRCRPPRLPRPRPRPCVVPRP | -0.474 |
| RRIRSRPPRLPRPRPRPINQPRP | -0.657 |
| RRIRHRPPRLPRPRPRPMFLPRP | -0.797 |
| RRIRSRPPRLPRPRPRPDWMPRP | 0.0892 |
| RRIRERPPRLPRPRPRPMNVPRP | -0.00243 |

| Sequence | shrunken log2 fold change |
| --- | --- |
| RRIRMRPPRLPRPRPRPGVWPRP | 0.723 |
| RRIRNRPPRLPRPRPRPCCLPRP | -0.219 |
| RRIRIRPPRLPRPRPRPIHAPRP | -0.00674 |
| RRIRNRPPRLPRPRPRPPHKPRP | -0.136 |
| RRIRRRPPRLPRPRPRPVWEPRP | 0.00461 |
| RRIRGRPPRLPRPRPRPYCFPRP | 0.0329 |
| RRIRLRPPRLPRPRPRPENEPRP | -0.0211 |
| RRIRPRPPRLPRPRPRPRGTPRP | 0.0776 |
| RRIRIRPPRLPRPRPRPHFDPRP | -0.149 |
| RRIRERPPRLPRPRPRPDSLPRP | -0.391 |
| RRIRYRPPRLPRPRPRPEDTPRP | -0.00443 |
| RRIRMRPPRLPRPRPRPRSQPRP | 0.108 |
| RRIRMRPPRLPRPRPRPKMKPRP | 1.45 |
| RRIRIRPPRLPRPRPRPQTGPRP | -0.139 |
| RRIRPRPPRLPRPRPRPPIMPRP | -0.0982 |
| RRIRLRPPRLPRPRPRPWPRPRP | 0.113 |
| RRIRRRPPRLPRPRPRPITYPRP | -0.0184 |
| RRIRCRPPRLPRPRPRPYIRPRP | -1.22 |
| RRIRARPPRLPRPRPRPYNHPRP | -0.402 |
| RRIRQRPPRLPRPRPRPQEIPRP | 0.0292 |
| RRIRDRPPRLPRPRPRPNFHPRP | -0.0585 |
